Here are results for 35 molecules from US20240116985A1, “STAPLED PEPTIDES AND METHODS THEREOF” (priority 2020, published 2024).

Starred links: 1 amine or outer side, 2 acyl side, 3 side chain; linkers in the order of their positions; H or OH if unused. Positions of bridges follow the written chain, without caps; N, C: chain ends. Non-standard residues stand in square brackets, D forms with d. Primed or numbered codes have the meaning given here. *: point of attachment. PyrS2″ = (S)-3-amino-1-((pent-4-en-1-yloxy)carbonyl)pyrrolidine-3-carboxylic acid (stapling residue), C=CCCCOC(=O)N1CC[C@@](N[*:1])(C(=O)[*:2])C1; B5(32) = 2-amino-2-(pent-4-en-1-yl)hept-6-enoic acid (bis-4-pentenylglycine, two alkene side chains), C=CCCCC(CCCC=C)(N[*:1])C(=O)[*:2]; B5(4) = 2,2-bis(4-pentenyl)glycine = 2-amino-2-(pent-4-en-1-yl)hept-6-enoic acid (stitching residue), C=CCCCC(CCCC=C)(N[*:1])C(=O)[*:2]; PyrS2 = (S)-3-amino-1-((pent-4-en-1-yloxy)carbonyl)pyrrolidine-3-carboxylic acid, C=CCCCOC(=O)N1CC[C@@](N[*:1])(C(=O)[*:2])C1; PyrS = (S)-1-((allyloxy)carbonyl)-3-aminopyrrolidine-3-carboxylic acid, C=CCOC(=O)N1CC[C@@](N[*:1])(C(=O)[*:2])C1; 3Br4FF = (S)-2-amino-3-(3-bromo-4-fluorophenyl)propanoic acid, O=C([C@H](Cc1ccc(F)c(Br)c1)N[*:1])[*:2]; MorphAsn = (S)-2-amino-4-morpholino-4-oxobutanoic acid, O=C(C[C@H](N[*:1])C(=O)[*:2])N1CCOCC1; B5(3) = 2,2-bis(4-pentenyl)glycine (stitching residue), C=CCCCC(CCCC=C)(N[*:1])C(=O)[*:2]; B5 = 2-amino-2-(pent-4-en-1-yl)hept-6-enoic acid, C=CCCCC(CCCC=C)(N[*:1])C(=O)[*:2]; B6 = 2-amino-2-(hex-5-en-1-yl)oct-7-enoic acid, C=CCCCCC(CCCCC=C)(N[*:1])C(=O)[*:2]; Me2Asn = listed as N4-methyl-L-asparagine, CNC(=O)C[C@H](N[*:1])C(=O)[*:2]; MeAsn = N4-methyl-L-asparagine, CNC(=O)C[C@H](N[*:1])C(=O)[*:2]; MeGln = N5-methyl-L-glutamine, CNC(=O)CC[C@H](N[*:1])C(=O)[*:2]; Phe(3-COOH) = N[C@@H](Cc1cccc(C(=O)O)c1)C(=O)O; Phe(2-CF3) = N[C@@H](Cc1ccccc1C(F)(F)F)C(=O)O; Phe(3,4-Me2) = Cc1ccc(C[C@H](N)C(=O)O)cc1C; Phe(2-Cl) = N[C@@H](Cc1ccccc1Cl)C(=O)O; Phe(4-Me) = Cc1ccc(C[C@H](N)C(=O)O)cc1; 2Nal = N[C@@H](Cc1ccc2ccccc2c1)C(=O)O; Phe(2-Me) = Cc1ccccc1C[C@H](N)C(=O)O; Bta = N[C@@H](Cc1csc2ccccc12)C(=O)O; αAllylPro = C=CC[C@@]1(C(=O)O)CCCN1; tBuAla = CC(C)(C)C[C@H](N)C(=O)O; 3Thi = N[C@@H](Cc1ccsc1)C(=O)O; Cha = N[C@@H](CC1CCCCC1)C(=O)O; S8 = C=CCCCCCC[C@](C)(N)C(=O)O; hSer = N[C@@H](CCO)C(=O)O; Aib = CC(C)(N)C(=O)O; BrAc = O=C(CBr)*

The target in one assay is full-length beta-Catenin (Uniprot ID P35222) (Homo sapiens (Human)) (UniProt P35222). Description: fluorescence polarization competition; full-length beta-catenin, competitor probe 5FAM-TCF4(10-53). (In general: In fluorescence polarisation assays a small probe gives low polarisation when free and higher when bound to something large.)
Sequence of full-length beta-Catenin (Uniprot ID P35222) (Homo sapiens (Human)) (P35222 whole entry): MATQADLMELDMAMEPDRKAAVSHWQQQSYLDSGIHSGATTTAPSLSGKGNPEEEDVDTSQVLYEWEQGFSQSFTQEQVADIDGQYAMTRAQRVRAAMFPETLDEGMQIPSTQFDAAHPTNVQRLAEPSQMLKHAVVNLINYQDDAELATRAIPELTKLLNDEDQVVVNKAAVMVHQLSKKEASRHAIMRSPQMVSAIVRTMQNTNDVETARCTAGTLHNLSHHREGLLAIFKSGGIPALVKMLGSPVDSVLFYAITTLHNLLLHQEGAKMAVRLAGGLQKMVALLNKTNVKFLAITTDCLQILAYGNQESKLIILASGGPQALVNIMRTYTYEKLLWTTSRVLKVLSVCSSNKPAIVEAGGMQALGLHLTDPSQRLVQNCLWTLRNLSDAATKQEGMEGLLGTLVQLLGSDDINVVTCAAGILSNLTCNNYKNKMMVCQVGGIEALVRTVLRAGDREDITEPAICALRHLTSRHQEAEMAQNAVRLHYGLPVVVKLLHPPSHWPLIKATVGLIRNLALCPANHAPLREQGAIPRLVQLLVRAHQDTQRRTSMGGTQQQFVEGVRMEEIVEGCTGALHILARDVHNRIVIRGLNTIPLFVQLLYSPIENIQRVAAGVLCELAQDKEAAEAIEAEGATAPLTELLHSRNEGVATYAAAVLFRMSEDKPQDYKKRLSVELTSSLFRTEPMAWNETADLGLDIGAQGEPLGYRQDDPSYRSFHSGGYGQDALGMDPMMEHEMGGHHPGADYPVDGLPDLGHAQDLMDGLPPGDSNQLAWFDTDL
BrAc-[αAllylPro]D[tBuAla][B5(4)]D[Phe(3-COOH)]AAFL[PyrS2][Phe(2-Cl)][Bta]A-NH2 (staple 1-4, 4-11) [I-2286] had an IC50 of 88 nM.
The same measure, in the same setting: in the case of Ac-[αAllylPro]D[tBuAla][B5(3)]D[Phe(3-COOH)]AAFL[PyrS2″][3Thi][Bta]NA[Aib]A[Aib]A-NH2 (staple 1-4, 4-11) [I-2272] it was 43 nM; in that of Ac-[αAllylPro]D[tBuAla][B5(32)]D[Phe(3-COOH)]AAFL[PyrS2][3Thi][Bta]NLLL-NH2 (staple 1-4, 4-11; also: later eluting staple isomer (HPLC peak)) [I-2276], 158 nM; in that of Ac-[αAllylPro]D[tBuAla][B5(4)]D[Phe(3-COOH)]AAFL[PyrS2][3Thi][Bta]NALALA-NH2 (staple 1-4, 4-11; also: later eluting staple isomer) [I-2282], 156 nM.
Still for that read-out and setting: in the case of Ac-[αAllylPro]D[tBuAla][B5(3)]D[Phe(3-COOH)]AAFL[PyrS2″][3Thi][Bta]NAAAAAAAAA-NH2 (staple 1-4, 4-11) [I-2270] it was 40 nM; in that of BrAc-[αAllylPro]D[tBuAla][B5(32)]DDAAFQ[PyrS2][3Thi][Bta]H-NH2 (staple 1-4, 4-11) [I-2285], 94 nM; in that of Ac-[αAllylPro]D[tBuAla][B5(4)]D[Phe(3-COOH)]QAFL[PyrS2][Phe(2-CF3)][3Br4FF]A-NH2 (staple 1-4, 4-11) [I-2290], 14 nM.
Still for that read-out and setting: in the case of Ac-[αAllylPro]D[tBuAla][B5(4)]D[Phe(3-COOH)]AAFL[PyrS2][3Thi][Bta]NALALALA-NH2 (staple 1-4, 4-11; also: later eluting staple isomer) [I-2284] it was 2680 nM; in that of Ac-[αAllylPro]D[tBuAla][B5(4)]D[Phe(3-COOH)]AAFL[PyrS2][Phe(2-CF3)][3Br4FF]S-NH2 (staple 1-4, 4-11) [I-2289], 8 nM.
For Ac-[αAllylPro]D[tBuAla][B5(4)]D[Phe(3-COOH)]AAFL[PyrS2][3Thi][Phe(3,4-Me2)]Q-NH2 (staple 1-4, 4-11) [I-2291], the IC50 was 5 nM.
Same read-out and setting: then Ac-[αAllylPro]D[tBuAla][B5(3)]D[Phe(3-COOH)]AAFL[PyrS2″][3Thi][Bta]NAAAAAAA-NH2 (staple 1-4, 4-11) [I-2269], with 20 nM; and Ac-[αAllylPro]D[tBuAla][B5(4)]D[Phe(3-COOH)]AAFL[PyrS2][3Thi][Bta]NALALALA-NH2 (staple 1-4, 4-11; also: earlier eluting staple isomer) [I-2283], with 2860 nM.
On the same count and under the same terms, then Ac-[αAllylPro]D[tBuAla][B5(32)]D[Phe(3-COOH)]AAFL[PyrS2][3Thi][Bta]NALL-NH2 (staple 1-4, 4-11; also: earlier eluting staple isomer) [I-2277], with 114 nM; and Ac-[αAllylPro]D[tBuAla][B5(4)]D[Phe(3-COOH)]AAFL[PyrS2][3Thi][Bta]NALALA-NH2 (staple 1-4, 4-11; also: earlier eluting staple isomer) [I-2281], with 138 nM; and Ac-[αAllylPro]D[tBuAla][B5(4)]D[Phe(3-COOH)]AAFL[PyrS2][3Thi][3Br4FF]Q-NH2 (staple 1-4, 4-11) [I-2287], with 7 nM.
Same read-out and setting: in the case of Ac-[αAllylPro]D[tBuAla][B5(3)]D[Phe(3-COOH)]AAFL[PyrS2″][3Thi][Bta]NA[Aib]A[Aib]A[Aib]A-NH2 (staple 1-4, 4-11) [I-2273] it was 107 nM.
Ac-[αAllylPro]D[tBuAla][B5(3)]D[Phe(3-COOH)]AAFL[PyrS2″][3Thi][Bta]NL-NH2 (staple 1-4, 4-11) [I-2274] registered an IC50 of 10 nM.
Ac-[αAllylPro]D[tBuAla][B5(32)]D[Phe(3-COOH)]AAFL[PyrS2][3Thi][Bta]NALL-NH2 (staple 1-4, 4-11; also: later eluting staple isomer) [I-2278] yielded an IC50 of 120 nM.
Still for that read-out and setting: then Ac-[αAllylPro]D[tBuAla][B5(32)]D[Phe(3-COOH)]AAFL[PyrS2][3Thi][Bta]NLLL-NH2 (staple 1-4, 4-11; also: earlier eluting staple isomer (HPLC peak)) [I-2275], with 117 nM.

The next assay shares this target. As to the kind of experiment: fluorescence polarization competition; peptide titrated against 10 nM full-length beta-catenin + 10 nM 5FAM-TCF4(10-53).
As to Ac-[αAllylPro]DA[B5(4)]DDAAFA[S8][Phe(4-Me)][Bta]Q-NH2 (staple 1-4, 4-11) [I-369], the IC50 amounted to 2310 nM.
On the same count and under the same terms, then Ac-[αAllylPro]DA[B5(4)]DDAA[Phe(2-Me)]A[S8]F[Bta]Q-NH2 (staple 1-4, 4-11; also: earlier-eluting staple isomer) [I-365], with 2720 nM; and Ac-[αAllylPro]DA[B5(4)]DDAAFA[S8][Phe(2-Me)][Bta]Q-NH2 (staple 1-4, 4-11) [I-367], with 177 nM.
Same read-out and setting: then Ac-[αAllylPro]DA[B5(4)]DDAA[2Nal]A[S8]F[Bta]Q-NH2 (staple 1-4, 4-11) [I-370], with 1560 nM.
The same measure, in the same setting: in the case of Ac-[αAllylPro]DA[B5(4)]DDAA[Phe(2-Me)]A[S8]F[Bta]Q-NH2 (staple 1-4, 4-11; also: later-eluting staple isomer) [I-366] it was 1440 nM.

The target is the same in the next assay. As to the kind of experiment: fluorescence polarization competition; 10 nM full-length beta-catenin, competitor 10 nM 5FAM-TCF4(10-53).
Regarding Ac-[αAllylPro]N[Cha][B5]DQ[Me2Gln]AFL[PyrS2]F[Bta][MorphAsn]-NH2 (staple 1-4, 4-11) [I-2501], the IC50 came out at 154 nM.
On the same count and under the same terms, then Ac-[αAllylPro]N[Cha][B5]DQ[MeGln]AFL[PyrS2]F[Bta][MorphAsn]-NH2 (staple 1-4, 4-11) [I-2502], with 214 nM.
Molecule Ac-[αAllylPro]DA[B5(4)]DDAAFA[S8][Phe(4-Me)][Bta]Q-NH2 (staple 1-4, 4-11) [I-369] returned an EC50 of 2310 nM.
With Ac-[αAllylPro]D[tBuAla][B6]D[Phe(3-COOH)]QAFL[PyrS][Phe(2-CF3)][Bta]A-NH2 (staple 1-4, 4-11; also: earlier-eluting staple isomer composition) [I-2506], the IC50 is 332 nM.
On the same count and under the same terms, in the case of Ac-[αAllylPro]N[Cha][B5]DQTAFL[PyrS2]F[Bta][MorphAsn]-NH2 (staple 1-4, 4-11) [I-2503] it was 1310 nM; in that of Ac-[αAllylPro]D[tBuAla][B5]NT[Aib]AFN[PyrS2][3Thi][Bta][MeAsn]-NH2 (staple 1-4, 4-11) [I-2495], 95 nM.
As to Ac-[αAllylPro]D[tBuAla][B6]D[Phe(3-COOH)]QAFL[PyrS][Phe(2-CF3)][Bta]A-NH2 (staple 1-4, 4-11; also: later-eluting staple isomer composition) [I-2507], the IC50 was 168 nM.
Same read-out and setting: then Ac-[αAllylPro]N[Cha][B5]DQQAFL[PyrS2]F[Bta][MorphAsn]-NH2 (staple 1-4, 4-11) [I-2504], with 210 nM; and Ac-[αAllylPro]N[Cha][B5]DQ[hSer]AFL[PyrS2]F[Bta][MorphAsn]-NH2 (staple 1-4, 4-11) [I-2498], with 449 nM; and Ac-[αAllylPro]D[tBuAla][B5]NT[Aib]AF[MeAsn][PyrS2][3Thi][Bta]N-NH2 (staple 1-4, 4-11) [I-2497], with 105 nM.
Ac-[αAllylPro]DA[B5(4)]DDAA[Phe(2-Me)]A[S8]F[Bta]Q-NH2 (staple 1-4, 4-11; also: earlier-eluting staple isomer) [I-365]: the half-maximal effective concentration (EC50) was 2720 nM.
On the same count and under the same terms, then Ac-[αAllylPro]DA[B5(4)]DDAAFA[S8][Phe(2-Me)][Bta]Q-NH2 (staple 1-4, 4-11) [I-367], with 177 nM; and Ac-[αAllylPro]DA[B5(4)]DDAA[2Nal]A[S8]F[Bta]Q-NH2 (staple 1-4, 4-11) [I-370], with 1560 nM.
Ac-[αAllylPro]D[tBuAla][B5]NT[Aib]AF[Me2Asn][PyrS2][3Thi][Bta]N-NH2 (staple 1-4, 4-11) [I-2496] showed an IC50 of 106 nM.
The same measure, in the same setting: then Ac-[αAllylPro]D[tBuAla][B5]NT[Aib]AFN[PyrS2][3Thi][Bta][Me2Asn]-NH2 (staple 1-4, 4-11) [I-2494], with 102 nM.
Ac-[αAllylPro]DA[B5(4)]DDAA[Phe(2-Me)]A[S8]F[Bta]Q-NH2 (staple 1-4, 4-11; also: later-eluting staple isomer) [I-366] displayed an EC50 of 1440 nM.

One may read the IC50 as the concentration at which inhibition is half-maximal. Usually EC50 stands for the concentration giving half of the maximal effect. A high value points to lower potency in that assay.
